Experimental data as given in PMC4306973 (Scientific Reports, 2015).
“And” between values parts separate entries of the source, which are not always exact repeats. Identical values can stand only once.

Molecular target: the molecule itself
Experiment: SEC

B1: vanillin dehydrogenase from Corynebacterium glutamicum ATCC13032 (VDH_(ATCC13032)) (enzyme, UniProt Q8NMB0 1-484, looked up)
chain: MTATFAGIDATKHLIGGQWVEGNSDRISTNINPYDDSVIAESKQASIADVDAAYEAAKKAQAEWAATPAAERSAIIYRAAELLEEHREEIVEWLIKESGSTRSKANLEITLAGNITKESASFPGRVHGRISPSNTPGKENRVYRVAKGVVGVISPWNFPLNLSIRSVAPALAVGNAVVIKPASDTPVTGGVIPARIFEEAGVPAGVISTVAGAGSEIGDHFVTHAVPKLISFTGSTPVGRRVGELAINGGPMKTVALELGGNAPFVVLADADIDAAAQAAAVGAFLHQGQICMSINRVIVDAAVHDEFLEKFVEAVKNIPTGDPSAEGTLVGPVINDSQLSGLKEKIELAKKEGATVQVEGPIEGRLVHPHVFSDVTSDMEIAREEIFGPLISVLKADDEAHAAELANASDFGLSAAVWSKDIDRAAQFALQIDSGMVHINDLTVNDEPHVMFGGSKNSGLGRFNGDWAIEEFTTDRWIGIKRS
stoichiometry N: 4 and 3 and 2
